Measurements as given in US20230235054A1 (BIOATLA, published 2023).

T1: cynoNectin4-mFc (cyno, UniProt A0A2K5WES1 32-349)
T1 construct: Immobilized on the SPR chip; also called cyanoNectin4; not shown: mFc (mouse Fc)
T1 sequence: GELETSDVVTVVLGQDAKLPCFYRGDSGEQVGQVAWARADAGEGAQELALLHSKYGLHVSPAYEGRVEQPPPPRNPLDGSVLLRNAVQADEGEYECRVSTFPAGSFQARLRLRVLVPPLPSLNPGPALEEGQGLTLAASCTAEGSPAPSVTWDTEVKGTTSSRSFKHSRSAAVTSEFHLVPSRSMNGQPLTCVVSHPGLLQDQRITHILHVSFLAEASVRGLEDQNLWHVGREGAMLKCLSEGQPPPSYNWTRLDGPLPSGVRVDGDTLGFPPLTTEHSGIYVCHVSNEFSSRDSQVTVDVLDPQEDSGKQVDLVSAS

T2: RatNectin4-His (rat, UniProt D3ZET1 31-348)
T2 construct: Immobilized on the SPR chip; not shown: His tag
T2 sequence: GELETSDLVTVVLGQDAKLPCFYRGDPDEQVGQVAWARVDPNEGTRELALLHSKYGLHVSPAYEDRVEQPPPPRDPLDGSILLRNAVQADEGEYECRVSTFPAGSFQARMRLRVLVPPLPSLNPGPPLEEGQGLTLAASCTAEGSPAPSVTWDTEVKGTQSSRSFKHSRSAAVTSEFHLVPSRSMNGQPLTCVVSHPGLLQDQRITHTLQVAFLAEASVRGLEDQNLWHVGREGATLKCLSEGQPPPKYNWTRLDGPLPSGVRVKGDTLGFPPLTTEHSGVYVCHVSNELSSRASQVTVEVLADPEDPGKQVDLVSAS

T3: recombinant human Nectin4 antigen (human, UniProt Q96NY8 32-349)
T3 construct: construct not described
T3 sequence (looked up): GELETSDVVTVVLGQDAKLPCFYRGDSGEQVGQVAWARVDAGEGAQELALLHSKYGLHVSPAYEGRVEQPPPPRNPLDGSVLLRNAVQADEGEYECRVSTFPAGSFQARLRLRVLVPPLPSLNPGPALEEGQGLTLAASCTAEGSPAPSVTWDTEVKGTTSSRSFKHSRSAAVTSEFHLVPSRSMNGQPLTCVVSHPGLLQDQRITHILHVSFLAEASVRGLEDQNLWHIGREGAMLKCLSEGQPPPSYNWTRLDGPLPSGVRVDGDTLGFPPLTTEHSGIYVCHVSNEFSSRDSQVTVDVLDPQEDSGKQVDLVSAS

T4: cynoNectin4 antigen (cynomolgus (cyno), UniProt A0A2K5WES1 32-349)
T4 construct: construct not described; also called cynomolgus (cyno) Nectin-4
T4 sequence: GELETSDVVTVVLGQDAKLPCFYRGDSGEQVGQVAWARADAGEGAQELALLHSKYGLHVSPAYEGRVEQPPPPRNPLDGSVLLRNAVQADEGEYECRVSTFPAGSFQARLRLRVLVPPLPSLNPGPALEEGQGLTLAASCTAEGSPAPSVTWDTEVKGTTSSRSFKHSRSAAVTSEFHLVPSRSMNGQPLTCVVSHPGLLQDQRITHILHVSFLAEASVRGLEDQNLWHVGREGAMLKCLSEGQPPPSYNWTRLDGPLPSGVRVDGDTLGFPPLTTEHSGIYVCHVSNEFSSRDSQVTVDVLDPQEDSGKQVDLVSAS


How the values were obtained:
[1] = target: T1, cynoNectin4-mFc; assay: SPR, cynoNectin4-mFc immobilized, pH 6.0
Experimental: Binding kinetics of anti-Nectin4 antibodies were measured by surface plasmon resonance using a SPR2/4 instrument (Sierra Sensors, Hamburg, Germany) and flat amine sensor chips. The SPR sensor contained four flow cells (FC1-FC4), each of which was addressed individually or in groups. huNectin4-His was immobilized in FC2, and cynoNectin4-mFc in FC4. No protein was immobilized in FC1 and FC3 which were used as control surfaces for FC2 and FC4, respectively.
(§1) All injections were done at a flow rate of 25 μL/min at 25° C. The sensor surface was activated with 1-ethyl-3-(3-dimethylaminopropyl)-carbodiimide (EDC) and N-hydroxysuccinimide (NHS) (200 mM/50 mM) for 480 seconds. HuNectin4-His (2 μg/mL in 10 mM NaAc, pH4.5) was injected for 480s and the surface was inactivated by injecting 1M ethanolamine-HCl for 480s. CynoNectin4 was immobilized using the same conditions as described for huNectin4-His, except that the cynoNectin4 was diluted into 10 mM NaAc buffer having pH 5.0. The control surface was activated and deactivated using the same conditions, but without injecting protein. PBST buffer (PBS pH 7.4 with 0.05% TWEEN20™) was used as running buffer for the surface preparation. The running solution was switched to PBST with 30 mM sodium bicarbonate with the pH adjusted as indicated in the figures before the analyte injections. The instrument was equilibrated with the running solution for one hour before the first analyte injection.
(§2) The off-rate was measured for 360s. The chip surface was regenerated after each cycle of interaction analysis by injecting 6 μL of 10 mM glycine (pH 2.0). Flow cells 1 and 3 without immobilized protein were used as control surfaces for reference subtraction.

[2] = target: T2, RatNectin4-His; assay: SPR, RatNectin4-His immobilized, pH 6.5
Experimental: as §1, §2
In addition, data with buffer only as analyte (0 nM analyte) was subtracted from each run. Double subtracted data was fitted with the provided analysis software Analyzer R2 (Sierra Sensors) using a 1:1 binding model. A molecular weight of 150 kDa was used to calculate the molar concentrations of the analytes. RatNectin4-His was immobilized in FC3 using the same conditions as described for cynoNectin4.

[3] = target: T3, recombinant human Nectin4 antigen; assay: ELISA, coated antigen, PSB pH 7.4
Experimental: (§3) 1) Coat ELISA plates with 100 μL of 1 μg/mL recombinant human Nectin4 antigen or cynoNectin4 antigen in carbonate-bicarbonate coating buffer. […] 2) Cover plates with sealing film and incubate overnight at 4° C. [0444] 3) Decant plates and tap out residual liquid on a stack of paper towels. [0445] 4) Wash wells twice by dispensing 200 μL of pH 6.0 or pH 7.4 ELISA incubation buffer to the wells and completely aspirate the contents. [0446] 5) Add 200 μL of pH 6.0 or pH 7.4 ELISA incubation buffer to the wells. Cover with sealing film and place the plate onto a plate shaker set to 50 rpm for 60 minutes at room temperature. [0447] 6) Decant plates and tap out residual liquid on a stack of paper towels. […] 7) Serially dilute test articles in 3-fold dilutions starting at 3000 ng/mL in pH 6.0 or pH 7.4 ELISA incubation buffer. […] 8) Add 100 μL/well of diluted test articles to the plates [0450] 9) Cover with sealing film and place the plates onto a plate shaker set to 50 rpm for 60 minutes at room temperature. [0451] 10) Decant plates and tap out residual liquid on a stack of paper towels. [0452] 11) Wash wells three times by dispensing 200 μL of pH 6.0 or pH 7.4 ELISA wash buffer to the wells and completely aspirate the contents. […] 12) Dilute the HRP secondary antibody at 1:2500 in pH 6.0 or pH 7.4 ELISA incubation buffer. [0454] […] 14) Cover with sealing film and place the plates onto a plate shaker set to 50 rpm for 60 minutes at room temperature. […] 15) Decant plates and tap out residual liquid on a stack of paper towels. […] 16) Wash wells three times by dispensing 200 μL of pH 6.0 or pH 7.4 ELISA wash buffer to the wells and completely aspirate the contents. [0458] 17) Dispense 50 μL per well of the TMB substrate solution into all wells of the plates.

[4] = target: T4, cynoNectin4 antigen; assay: ELISA, coated antigen, PSB pH 7.4
Experimental: as §3

| Kd [1] [nM] | Kd [2] [nM] | EC50 [3] [µg/mL] | EC50 [4] [µg/mL] | koff [1] [s⁻¹] | kon [1] [M⁻¹ s⁻¹] | koff [2] [s⁻¹] | kon [2] [M⁻¹ s⁻¹] | Binder |
| --- | --- | --- | --- | --- | --- | --- | --- | --- |
| 0.311 | 0.108 | 0.0202 | 0.0128 |  |  |  |  | BAP-143-wildtype (antibody, V domains shown, 150 kDa used in SPR; also called BAP143-00-00; benchmark (BM)) VH: EVQLVESGGGLVQPGGSLRLSCAASGFTFSSYNMNWVRQAPGKGLEWVSYISSSSSTIYYADSVKGRFTISRDNAKNSLSLQMNSLRDEDTAVYYCARAYYYGMDVWGQGTTVTVSS VL: DIQMTQSPSSVSASVGDRVTITCRASQGISGWLAWYQQKPGKAPKFLIYAASTLQSGVPSRFSGSGSGTDFTLTISSLQPEDFATYYCQQANSFPPTFGGGTKVEIK |
|  |  |  | 0.0723 |  |  |  |  | BAP-143-06-33-03 (antibody, V domains shown, Used as a conjugate with a linker payload (CAB ADC)) VH: QVQLVQSGAEVKKPGASVKVSCKASGFTFSSYNMNWVRQARGQRLEWIGYISSSSSTIYYADSVKGRFTISRDNSKNTLYLQMNSLRAEDTAVYYCARAYYYGMDKWGQGTLVTVSS VL: DIQMTQSPSSVSASVGDRVTITCRASQGISGWLAWYQQKPGKAPKFLIYAASTLQSGVPSRFSGSGSGTDFTLTISSLQPEDFATYYCQQANSEPPTFGGGTKVEIK |
| 0.207 | 0.0378 |  | 0.0282 | 0.000579 | 2.8e+06 | 0.000128 | 3.39e+06 | BAP-143-06-24-16 (antibody, V domains shown, Used as a conjugate with a linker payload (CAB ADC)) VH: EVQLVQSGAEVKKPGATVKISCKVSGFTFSSYNMNWIRQSPSRGLEWLGYISSSSSTIYYADSVKGRFTISRDNSKNTLYLQMNSLRAEDTAVYYCARAYYYGDDVWGQGTLVTVSS VL: DIQMTQSPSSVSASVGDRVTITCHASQGISGWLAWYQQKPGKAPKFLIYAASTLQSGVPSRFSGSGSGTDFTLTISSLQPEDFATYYCQQANSFPPTFGGGTKVEIK |
|  |  | 0.141 |  |  |  |  |  | BAP-143-00-05 (antibody, V domains shown, Used as a conjugate with a linker payload (CAB ADC)) VH: EVQLVESGGGLVQPGGSLRLSCAASGFTFSSYNMNWVRQAPGKGLEWVSYISSSSSTIYYADSVKGRFTISRDNAKNSLSLQMNSLRDEDTAVYYCAEAYYYGMDVWGQGTTVTVSS VL: DIQMTQSPSSVSASVGDRVTITCRASQGISGWLAWYQQKPGKAPKFLIYAASTLQSGVPSRFSGSGSGTDFTLTISSLQPEDFATYYCQQANSFPPTFGGGTKVEIK |
| 0.187 | 0.101 |  |  | 0.000273 | 1.46e+06 | 0.000304 | 3.01e+06 | BAP-143-06-33-16 (antibody, V domains shown, Used as a conjugate with a linker payload (CAB ADC)) VH: EVQLVQSGAEVKKPGATVKISCKVSGFTFSSYNMNWIRQSPSRGLEWLGYISSSSSTIYYADSVKGRFTISRDNSKNTLYLQMNSLRAEDTAVYYCARAYYYGDDVWGQGTLVTVSS VL: DIQMTQSPSSVSASVGDRVTITCRASQGISGWEAWYQQKPGKAPKFLIYAASTLQSGVPSRFSGSGSGTDFTLTISSLQPEDFATYYCQQANSFPPTFGGGTKVEIK |
| 1.85 | 1.36 |  |  | 0.00142 | 769000 | 0.000953 | 700000 | BAP-143-00-01 (antibody, V domains shown, Used as a conjugate with a linker payload (CAB ADC)) VH: EVQLVESGGGLVQPGGSLRLSCAASGFTFSSYNMNWVRQAPGKGLEWVSYISSSSSTIYYADSVKGRFTISRDNAKNSLSLQMNSLRDEDTAVYYCARAYYYGMDVWGQGTTVTVSS VL: DIQMTQSPSSVSASVGDRVTITCRASQGISGWEAWYQQKPGKAPKFLIYAASTLQSGVPSRFSGSGSGTDFTLTISSLQPEDFATYYCQQANSFPPTFGGGTKVEIK |
|  |  | 0.061 |  |  |  |  |  | BAP-143-00-04 (antibody, V domains shown, Used as a conjugate with a linker payload (CAB ADC)) VH: EVQLVESGGGLVQPGGSLRLSCAASGFTFSSYNDNWVRQAPGKGLEWVSYISSSSSTIYYADSVKGRFTISRDNAKNSLSLQMNSLRDEDTAVYYCARAYYYGMDVWGQGTTVTVSS VL: DIQMTQSPSSVSASVGDRVTITCRASQGISGWLAWYQQKPGKAPKFLIYAASTLQSGVPSRFSGSGSGTDFTLTISSLQPEDFATYYCQQANSFPPTFGGGTKVEIK |
|  |  | 0.0698 |  |  |  |  |  | BAP-143-00-06 (antibody, V domains shown, Used as a conjugate with a linker payload (CAB ADC)) VH: EVQLVESGGGLVQPGGSLRLSCAASGFTFSSYNMNWVRQAPGKGLEWVSYISSSSSTIYYADSVKGRFTISRDNAKNSLSLQMNSLRDEDTAVYYCARAYYYGDDVWGQGTTVTVSS VL: DIQMTQSPSSVSASVGDRVTITCRASQGISGWLAWYQQKPGKAPKFLIYAASTLQSGVPSRFSGSGSGTDFTLTISSLQPEDFATYYCQQANSFPPTFGGGTKVEIK |
| 1.15 | 1.1 |  | 0.086 | 0.00113 | 983000 | 0.000868 | 787000 | BAP-143-07-03-12 (antibody, V domains shown, Used as a conjugate with a linker payload (CAB ADC)) VH: EVQLVESGGGLVQPGGSLRLSCAASGFTFSSYNMNWVRQAPGKGLEWVSYISSSSSTIYYADSVKGRFTISRDNAKNSLSLQMNSLRDEDTAVYYCARAYYYGMDKWGQGTTVTVSS VL: DIQMTQSPSSVSASVGDRVTITCRASQGISGWEAWYQQKPGKAPKFLIYAASTLQSGVPSRFSGSGSGTDFTLTISSLQPEDFATYYCQQANSFPPTFGGGTKVEIK |
|  |  | 0.245 |  |  |  |  |  | BAP-143-00-03 (antibody, V domains shown, Used as a conjugate with a linker payload (CAB ADC)) VH: EVQLVESGGGLVQPGGSLRLSCAASGFTFSSYNMNWVRQAPGKGLEWVSYISSSSSTIYYADSVKGRFTISRDNAKNSLSLQMNSLRDEDTAVYYCARAYYYGMDVWGQGTTVTVSS VL: DIQMTQSPSSVSASVGDRVTITCRASQGISGWLAWYQQKPGKAPKFLIYAASTLQSGVPSRFSGSGSGTDFTLTISSLQPEDFATYYCQQANSFPDTFGGGTKVEIK |
